According to patent publication US20240277844A1:

Biological target: anti-CD3 idiotype ScFv (CAR6) fused to the 28z-CAR-membrane-bound IL-15 construct, on cord blood-derived NK cells
Assay: cell-based or functional assay

Max Activity, CCL5 release (pg/ml), CBNK/CAR6 cells + Ramos/HiBiT: 6.9 pg/mL
Max Activity, FasL release (pg/ml), CBNK/CAR6 cells + Ramos/HiBiT: 16.4 pg/mL
Max Activity, Granzyme A release (pg/ml), CBNK/CAR6 cells + Ramos/HiBiT: 643 pg/mL
Max Activity, Granzyme B release (pg/ml), CBNK/CAR6 cells + Ramos/HiBiT: 239 pg/mL
Max Activity, IFNγ release (pg/ml), CBNK/CAR6 cells + Ramos/HiBiT: 45.6 pg/mL
Max Activity, TNFα release (pg/ml), CBNK/CAR6 cells + Ramos/HiBiT: 11.9 pg/mL
Substance: REGN1979 (bispecific antibody)
Max Activity, Cytotoxicity (%), CBNK/CAR6 cells + Ramos/HiBiT: 25.5%
